From the supplement of paper PMC7125110
± gives the standard error. For some assays here: Variants at the floor of the assay were thinned out.

B1: glmS ribozyme (parent)
chain: AUAAAAGCGCCAGAACUACAGAAAUGUAGUUGACGAGGAGGAGGUUUAUCGAAUUUUCGGCGGAUGCCUCCAAA

Key:
Details in all cases: with glucosamine-6-phosphate
glucosamine-6-phosphate [1] = variants of: B1; assay: kcat; higher = faster cleavage; RNA array
Procedure, shortened: (§1)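 E. coli RNA polymerase transcribed barcoded ribozyme variants in situ on sequenced MiSeq chips, which were tracked via a hybridised Cy3 probe at 37 °C. Tiles were imaged over ~14 h after glucosamine-6-phosphate (40 μM to 10 mM) in HEPES/KCl/Mg(OAc)2 buffer was flowed in. Normalised per-tile medians were fit to one- or two-exponential decays for kobs, and kcat and KM came from weighted Michaelis–Menten fits.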

glucosamine-6-phosphate [2] = variants of: B1; assay: KM; higher = weaker cofactor use; RNA array
Procedure, shortened: as §1

glucosamine-6-phosphate [3] = variants of: B1; assay: self-cleavage kobs at 160 uM GlcN6P; higher = faster cleavage; RNA array
Procedure, shortened: as §1

glucosamine-6-phosphate [4] = variants of: B1; assay: self-cleavage kobs at 640 uM GlcN6P; higher = faster cleavage; RNA array
Procedure, shortened: as §1

glucosamine-6-phosphate [5] = variants of: B1; assay: self-cleavage kobs at 2500 uM GlcN6P; higher = faster cleavage; RNA array
Procedure, shortened: as §1

glucosamine-6-phosphate [6] = variants of: B1; assay: self-cleavage kobs at 10000 uM GlcN6P; higher = faster cleavage; RNA array
Procedure, shortened: as §1

glucosamine-6-phosphate [7] = variants of: B1; assay: self-cleavage kobs at 40 uM GlcN6P; higher = faster cleavage; RNA array
Procedure, shortened: as §1

Variant	kcat (glucosamine-6-phosphate [1]) [s⁻¹]	KM (glucosamine-6-phosphate [2]) [µM]	self-cleavage kobs at 160 uM GlcN6P (glucosamine-6-phosphate [3]) [s⁻¹]	self-cleavage kobs at 640 uM GlcN6P (glucosamine-6-phosphate [4]) [s⁻¹]	self-cleavage kobs at 2500 uM GlcN6P (glucosamine-6-phosphate [5]) [s⁻¹]	self-cleavage kobs at 10000 uM GlcN6P (glucosamine-6-phosphate [6]) [s⁻¹]	self-cleavage kobs at 40 uM GlcN6P (glucosamine-6-phosphate [7]) [s⁻¹]
AUAAAAGCGCCAGAACUACAGAAAUGUAGUUGACGAGGAGGAGGUUUAUCGUAUUUUCGGCGGAUGCCUCCAAA	0.000465 ± 1.7e-05	2960 ± 200	2.13e-05 ± 1.9e-06	8.16e-05 ± 1.8e-06	0.000223 ± 4.8e-06	0.000355 ± 5.5e-06	–
AUAAAAGCGCCAGAACUACAGAAAUGUAGUUGACGAGGAGGAGGUUUAUCGAAUUUUCGGCGAAUGCUUCCAAA	< 1e-05	–	–	–	–	–	< 1e-05
AUAAAAGCGCCAGAUCUACAGAAAUGUAGUUGACGAGGAGGAGGUUUAUCGAAUUUUCGGCGGAUUCCUCCAAA	0.000139 ± 1.2e-05	717 ± 180	–	6.31e-05 ± 9.8e-06	0.000153 ± 4.4e-05	0.000127 ± 1.5e-05	–
AUAAAAGCGCCAGAAGUACAGAAAUGUAGUUGACGAGGAGGAGGUUUAUCGAAUUAUCGGCGGAUGCCUCCAAA	0.00335 ± 0.00047	2810 ± 590	0.000189 ± 6.3e-05	0.000593 ± 0.00014	0.00135 ± 0.00026	0.00286 ± 0.00043	5.21e-05 ± 9.6e-06
AUAAAAGCGCCAUAACUACAGAAAUGUAGUUGACGAGGAGGAGGUUUAUCGGAUUUUCGGCGGAUGCCUCCAAA	7e-05 ± 5.1e-06	817 ± 370	–	–	6.21e-05 ± 1.3e-05	6.34e-05 ± 7e-06	< 1e-05
AUAAAAGCGCCAGAACUACAGAAAUGUAGUUGACGAGGAGGAGGUUUAUCGAAUUUUCGGCGGAUGGCUCGAAA	1.33e-05 ± 4.1e-06	–	–	–	–	–	–
AUAAAAGCGCCAGAACUACAGAAAUGUAGUUGACGAGGUGGAGGGUUAUCGAAUUUUCGGCGGAUGCCUCCAAA	0.00909 ± 0.0007	2650 ± 300	0.000471 ± 8.8e-05	0.00165 ± 0.00028	0.00481 ± 0.00079	0.00711 ± 0.00075	0.000146 ± 2e-05
AUAAAAGCGCCGGAACUACAGAAAUGUAGUUGACGAGGAGGAGGUUUAUCGAAUUUUCGGCGGAUGUCUCCAAA	0.000655 ± 3.4e-05	3650 ± 310	–	9.59e-05 ± 9.7e-06	0.000297 ± 5.2e-05	0.000475 ± 4.3e-05	–
AUAAAAGCGCCAGAAAUACAGAAAUGUAGCUGACGAGGAGGAGGUUUAUCGAAUUUUCGGCGGAUGCCUCCAAA	2.39e-05 ± 3.2e-06	–	–	–	2.62e-05 ± 9e-06	2.12e-05 ± 8.1e-06	–
AUAAAAGCGCCAGAACUACAGAAAUGUAGUUGAGGAGGAGGAGGUUUAUCGAAUUUUCGGCGGAUGCCUACAAA	1.99e-05 ± 6.8e-06	–	–	–	–	–	–
AUAAAAGCGCCGGACCUACAGAAAUGUAGUUGACGAGGAGGAGGUUUAUCGAAUUUUCGGCGGAUGCCUCCAAA	0.000514 ± 0.00013	–	–	–	7.79e-05 ± 1e-05	0.000205 ± 2.2e-05	–
AUAAAAGCGCCAGAACUACAGAAAUGUAGUUGACGAGGAGGAGGUUUAUCGAACUUUCGGCGUAUGCCUCCAAA	< 1e-05	–	–	< 1e-05	–	–	–
AUAAAAGCGCCAGAACUACAGAAAUGUAGUUGACGAGAAGGAGGUUUAUCGAAUUUUCGGCGGAUGCCUGCAAA	1.82e-05 ± 1.9e-06	–	–	–	–	–	–
AUAAAAGCGCCAGAACUACAGAAAUGUAGUUGACGAGGAGGAGGUCAAUCGAAUUUUCGGCGGAUGCCUCCAAA	0.00433 ± 0.002	–	–	0.000719 ± 0.00017	0.00311 ± 0.0008	0.00365 ± 0.001	9.34e-05 ± 1.5e-05
AUAAAAGCGCCAGAACUACAGAAAUGUAGUGGACGACGAGGAGGUUUAUCGAAUUUUCGGCGGAUGCCUCCAAA	2.89e-05 ± 1.4e-06	1380 ± 340	–	–	–	–	< 1e-05
AUAAAAGCGCCAGGACUACAGAAAUGUAGUUGUCGAGGAGGAGGUUUAUCGAAUUUUCGGCGGAUGCCUCCAAA	0.000136 ± 9.7e-06	8710 ± 1300	–	–	3.08e-05 ± 1e-05	7.29e-05 ± 7e-06	< 1e-05
AUAAAAGCGCCAGUACUACAGAAAUGUAGUUGACGAGGAGGAGGUUUAUAGAAGUUUCGGCAGAUGCUUCCAAA	3.85e-05 ± 1.7e-05	–	–	7.62e-05 ± 2.5e-05	–	–	–
AUAAAAGCGCCAGAACUACAGAAAUGUAGUUGACGAGGAGGAGGAUUAUCGAAUUUUCGGCGGAGGCCUCCAAA	0.00585 ± 0.001	4290 ± 1100	–	0.000543 ± 0.00016	0.00235 ± 0.00063	0.00411 ± 0.00045	5.91e-05 ± 7.9e-06
AUAAAAGCGCCGGAACUACAGAAAUGUAGUUGACGAGGAUGAGGUUUAUCGAAUUUUCGGCGGAUGCCUCCAAA	0.000365 ± 1.8e-05	3740 ± 350	–	5.37e-05 ± 6.7e-06	0.000148 ± 1.3e-05	0.000265 ± 1.9e-05	–
